The data set relates to O=Cc1ccc([N+](=O)[O-])cc1. In words: Henry reaction, product by HPLC, Michaelis-Menten fit. Particulars: nitromethane 1 M (excess), 3-18 mM aldehyde, 0.3 mg/mL enzyme, 40 °C, 5 min. It is filed as biochemical, Lactococcus cremoris. An excerpt:
Henry reaction, product by HPLC, Michaelis-Menten fit on LmrR (Lactococcal multidrug resistance Regulator)

Usually Km stands for the concentration of substrate that gives half-maximal velocity. One may read the Vmax as the top rate of the reaction or transport when substrate is in excess. As usually defined, the kcat is the number of substrate molecules converted per active site and unit of time at saturation. As a reminder, the kcat/Km is the second-order rate constant that governs catalysis at low substrate concentration.

Regarding “LmrR (Lactococcal multidrug resistance Regulator) (Lactococcus cremoris subsp. cremoris MG1363; V15F)”, the Michaelis-Menten constant (Km) is 8.28 mM, the Vmax is 1960 µM/min, the kcat was determined as 1.47 s⁻¹ and the kcat/Km amounted to 178 M⁻¹ s⁻¹.

These data come from PMC10992053, “Rationally introducing non-canonical amino acids to enhance catalytic activity of LmrR for Henry reaction” (Bioresources and Bioprocessing, 2024).
